Source: PMC9482650, “Quantitative fragmentomics allow affinity mapping of interactomes” (Nature Communications, 2022)

T1: SNTG2, Q9NY99
T1 sequence (Q9NY99 68-166, limits assumed, looked up): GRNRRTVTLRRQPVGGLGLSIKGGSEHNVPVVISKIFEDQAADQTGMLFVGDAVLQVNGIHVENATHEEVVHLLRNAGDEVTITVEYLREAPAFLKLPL

T2: APBA1_2, Q02410
T2 sequence (Q02410 742-832, limits assumed, looked up): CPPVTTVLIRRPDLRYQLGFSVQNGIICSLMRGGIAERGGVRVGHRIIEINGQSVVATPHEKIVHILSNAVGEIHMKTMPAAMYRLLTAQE

T3: CARD11, Q9BXL7
T3 sequence (Q9BXL7 662-765, limits assumed, looked up): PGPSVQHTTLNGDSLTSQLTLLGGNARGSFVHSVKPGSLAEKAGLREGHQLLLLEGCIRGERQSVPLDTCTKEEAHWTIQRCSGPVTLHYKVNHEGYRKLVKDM

T4: LRRC7, Q96NW7
T4 sequence (Q96NW7 1440-1537, limits assumed, looked up): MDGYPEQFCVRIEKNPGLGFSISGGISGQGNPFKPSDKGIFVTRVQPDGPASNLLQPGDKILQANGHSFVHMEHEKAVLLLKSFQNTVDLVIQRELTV

T5: NHERF3_3, Q5T2W1
T5 sequence (Q5T2W1 238-333, limits assumed, looked up): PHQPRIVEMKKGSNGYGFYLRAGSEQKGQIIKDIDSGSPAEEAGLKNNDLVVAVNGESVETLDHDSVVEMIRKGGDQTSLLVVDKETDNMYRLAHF

T6: MPP6, Q9NZW5
T6 sequence (Q9NZW5 125-219, limits assumed, looked up): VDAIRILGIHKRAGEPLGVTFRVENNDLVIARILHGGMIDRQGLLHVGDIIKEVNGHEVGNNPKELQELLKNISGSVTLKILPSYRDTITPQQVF

T7: NHERF3_1, Q5T2W1
T7 sequence (Q5T2W1 4-100, limits assumed, looked up): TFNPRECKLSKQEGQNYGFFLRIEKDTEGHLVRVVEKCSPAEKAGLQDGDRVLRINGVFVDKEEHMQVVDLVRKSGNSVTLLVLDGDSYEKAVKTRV

T8: PARD3B_1, Q8TEW8
T8 sequence (Q8TEW8 196-299, limits assumed, looked up): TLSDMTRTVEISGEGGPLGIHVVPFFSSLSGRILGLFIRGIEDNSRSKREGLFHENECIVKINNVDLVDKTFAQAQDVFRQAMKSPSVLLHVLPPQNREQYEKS

T9: SNTG1, Q9NSN8
T9 sequence (Q9NSN8 52-150, limits assumed, looked up): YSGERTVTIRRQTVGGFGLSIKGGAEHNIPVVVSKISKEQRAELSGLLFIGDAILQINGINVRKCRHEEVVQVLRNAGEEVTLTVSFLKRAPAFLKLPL


target: AHNAK1, Q09666; test: holdup assay; set-up: key: below the threshold = too weak to quantify, mostly under pKd 3.1 to 4; conditions: plain residues with an end cap or a label only (N-terminal biotin on a linker: ado-ado)
Sequence (Q09666 4-100): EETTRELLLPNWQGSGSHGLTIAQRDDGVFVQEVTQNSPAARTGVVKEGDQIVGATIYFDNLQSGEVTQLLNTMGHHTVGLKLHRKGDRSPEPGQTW

pKd | Binder
below the threshold | PGKKPEDSRV [SLCO2B1, O94956]
below the threshold | MLPANYVEAI [NEB, P20929]

target: GRASP, Q7Z6J2; test: holdup assay; set-up: key: below the threshold = too weak to quantify, mostly under pKd 3.1 to 4; conditions: plain residues with an end cap or a label only (N-terminal biotin on a linker: ado-ado)
Sequence (Q7Z6J2 96-193): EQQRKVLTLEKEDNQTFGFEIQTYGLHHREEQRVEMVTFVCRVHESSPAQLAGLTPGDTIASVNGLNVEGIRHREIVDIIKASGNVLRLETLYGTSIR

pKd | Binder
below the threshold | PGKKPEDSRV [SLCO2B1, O94956]
below the threshold | MLPANYVEAI [NEB, P20929]

target: LNX1_1, Q8TBB1; test: holdup assay; set-up: key: below the threshold = too weak to quantify, mostly under pKd 3.1 to 4; conditions: plain residues with an end cap or a label only (N-terminal biotin on a linker: ado-ado)
Sequence (Q8TBB1 261-371): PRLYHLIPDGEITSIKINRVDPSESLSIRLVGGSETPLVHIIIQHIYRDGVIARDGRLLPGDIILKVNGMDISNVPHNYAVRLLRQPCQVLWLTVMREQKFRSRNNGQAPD

pKd | Binder
below the threshold | PGKKPEDSRV [SLCO2B1, O94956]
below the threshold | MLPANYVEAI [NEB, P20929]

target: IL16_4, Q14005; test: holdup assay; set-up: key: below the threshold = too weak to quantify, mostly under pKd 3.1 to 4; conditions: plain residues with an end cap or a label only (N-terminal biotin on a linker: ado-ado)
Sequence (Q14005 1229-1329): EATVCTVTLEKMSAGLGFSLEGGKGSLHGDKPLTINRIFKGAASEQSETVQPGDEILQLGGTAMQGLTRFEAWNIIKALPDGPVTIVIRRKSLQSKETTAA

pKd | Binder
below the threshold | PGKKPEDSRV [SLCO2B1, O94956]
below the threshold | MLPANYVEAI [NEB, P20929]

target: T1, SNTG2, Q9NY99; test: holdup assay; set-up: key: below the threshold = too weak to quantify, mostly under pKd 3.1 to 4; conditions: plain residues with an end cap or a label only (N-terminal biotin on a linker: ado-ado)

pKd | Binder
3.83 | PGKKPEDSRV [SLCO2B1, O94956]
below the threshold | MLPANYVEAI [NEB, P20929]

target: NHERF4_4, Q86UT5; test: holdup assay; set-up: key: below the threshold = too weak to quantify, mostly under pKd 3.1 to 4; conditions: plain residues with an end cap or a label only (N-terminal biotin on a linker: ado-ado)
Sequence (Q86UT5 464-550): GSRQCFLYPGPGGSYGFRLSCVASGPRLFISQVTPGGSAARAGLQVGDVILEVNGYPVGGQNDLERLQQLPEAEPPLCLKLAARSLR

pKd | Binder
below the threshold | PGKKPEDSRV [SLCO2B1, O94956]
below the threshold | MLPANYVEAI [NEB, P20929]

target: SCRIB_3, Q14160; test: holdup assay; set-up: key: below the threshold = too weak to quantify, mostly under pKd 3.1 to 4; conditions: plain residues with an end cap or a label only (N-terminal biotin on a linker: ado-ado)
Sequence (Q14160 999-1103): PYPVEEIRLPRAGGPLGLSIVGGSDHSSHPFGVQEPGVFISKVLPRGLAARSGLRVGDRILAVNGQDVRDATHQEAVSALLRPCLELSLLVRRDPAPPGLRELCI

pKd | Binder
below the threshold | PGKKPEDSRV [SLCO2B1, O94956]
below the threshold | MLPANYVEAI [NEB, P20929]

target: T2, APBA1_2, Q02410; test: holdup assay; set-up: key: below the threshold = too weak to quantify, mostly under pKd 3.1 to 4; conditions: plain residues with an end cap or a label only (N-terminal biotin on a linker: ado-ado)

pKd | Binder
below the threshold | PGKKPEDSRV [SLCO2B1, O94956]
below the threshold | MLPANYVEAI [NEB, P20929]

target: GRIP2_6, Q9C0E4; test: holdup assay; set-up: key: below the threshold = too weak to quantify, mostly under pKd 3.1 to 4; conditions: plain residues with an end cap or a label only (N-terminal biotin on a linker: ado-ado)
Sequence (Q9C0E4 648-740): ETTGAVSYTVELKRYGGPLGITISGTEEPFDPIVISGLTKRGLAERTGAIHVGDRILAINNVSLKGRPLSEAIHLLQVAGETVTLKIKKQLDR

pKd | Binder
below the threshold | PGKKPEDSRV [SLCO2B1, O94956]
below the threshold | MLPANYVEAI [NEB, P20929]

target: SCRIB_1, Q14160; test: holdup assay; set-up: key: below the threshold = too weak to quantify, mostly under pKd 3.1 to 4; conditions: plain residues with an end cap or a label only (N-terminal biotin on a linker: ado-ado)
Sequence (Q14160 718-814): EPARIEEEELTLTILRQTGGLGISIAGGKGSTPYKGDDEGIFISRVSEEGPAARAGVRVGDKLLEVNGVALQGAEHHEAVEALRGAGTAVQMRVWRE

pKd | Binder
below the threshold | PGKKPEDSRV [SLCO2B1, O94956]
below the threshold | MLPANYVEAI [NEB, P20929]

target: T3, CARD11, Q9BXL7; test: holdup assay; set-up: key: below the threshold = too weak to quantify, mostly under pKd 3.1 to 4; conditions: plain residues with an end cap or a label only (N-terminal biotin on a linker: ado-ado)

pKd | Binder
below the threshold | PGKKPEDSRV [SLCO2B1, O94956]
below the threshold | MLPANYVEAI [NEB, P20929]

target: PTPN3, P26045; test: holdup assay; set-up: key: below the threshold = too weak to quantify, mostly under pKd 3.1 to 4; conditions: plain residues with an end cap or a label only (N-terminal biotin on a linker: ado-ado)
Sequence (P26045 505-587): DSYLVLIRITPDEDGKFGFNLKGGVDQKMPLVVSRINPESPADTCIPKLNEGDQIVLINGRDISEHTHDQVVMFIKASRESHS

pKd | Binder
below the threshold | PGKKPEDSRV [SLCO2B1, O94956]
3.64 | MLPANYVEAI [NEB, P20929]

target: DLG1_3, Q12959; test: holdup assay; set-up: key: below the threshold = too weak to quantify, mostly under pKd 3.1 to 4; conditions: plain residues with an end cap or a label only (N-terminal biotin on a linker: ado-ado)
Sequence (Q12959 457-571): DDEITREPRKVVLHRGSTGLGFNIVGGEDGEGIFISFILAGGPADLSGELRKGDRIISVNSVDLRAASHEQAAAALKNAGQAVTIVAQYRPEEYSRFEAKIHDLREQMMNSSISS

pKd | Binder
below the threshold | PGKKPEDSRV [SLCO2B1, O94956]
below the threshold | MLPANYVEAI [NEB, P20929]

target: LIMK2, P53671; test: holdup assay; set-up: key: below the threshold = too weak to quantify, mostly under pKd 3.1 to 4; conditions: plain residues with an end cap or a label only (N-terminal biotin on a linker: ado-ado)
Sequence (P53671 143-248): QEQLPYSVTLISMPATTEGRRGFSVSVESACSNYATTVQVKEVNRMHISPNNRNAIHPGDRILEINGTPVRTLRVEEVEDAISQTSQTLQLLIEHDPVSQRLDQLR

pKd | Binder
below the threshold | PGKKPEDSRV [SLCO2B1, O94956]
below the threshold | MLPANYVEAI [NEB, P20929]

target: MAGI2_3, Q86UL8; test: holdup assay; set-up: key: below the threshold = too weak to quantify, mostly under pKd 3.1 to 4; conditions: plain residues with an end cap or a label only (N-terminal biotin on a linker: ado-ado)
Sequence (Q86UL8 600-682): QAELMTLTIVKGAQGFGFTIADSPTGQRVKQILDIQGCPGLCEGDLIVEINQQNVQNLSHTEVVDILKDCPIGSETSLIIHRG

pKd | Binder
below the threshold | PGKKPEDSRV [SLCO2B1, O94956]
below the threshold | MLPANYVEAI [NEB, P20929]

target: IL16_1, Q14005; test: holdup assay; set-up: key: below the threshold = too weak to quantify, mostly under pKd 3.1 to 4; conditions: plain residues with an end cap or a label only (N-terminal biotin on a linker: ado-ado)
Sequence (Q14005 210-306): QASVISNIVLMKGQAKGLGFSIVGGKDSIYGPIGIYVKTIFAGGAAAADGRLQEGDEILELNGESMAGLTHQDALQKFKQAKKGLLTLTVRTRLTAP

pKd | Binder
3.84 | PGKKPEDSRV [SLCO2B1, O94956]
below the threshold | MLPANYVEAI [NEB, P20929]

target: T4, LRRC7, Q96NW7; test: holdup assay; set-up: key: below the threshold = too weak to quantify, mostly under pKd 3.1 to 4; conditions: plain residues with an end cap or a label only (N-terminal biotin on a linker: ado-ado)

pKd | Binder
below the threshold | PGKKPEDSRV [SLCO2B1, O94956]
below the threshold | MLPANYVEAI [NEB, P20929]

target: T5, NHERF3_3, Q5T2W1; test: holdup assay; set-up: key: below the threshold = too weak to quantify, mostly under pKd 3.1 to 4; conditions: plain residues with an end cap or a label only (N-terminal biotin on a linker: ado-ado)

pKd | Binder
below the threshold | PGKKPEDSRV [SLCO2B1, O94956]
below the threshold | MLPANYVEAI [NEB, P20929]

target: T6, MPP6, Q9NZW5; test: holdup assay; set-up: key: below the threshold = too weak to quantify, mostly under pKd 3.1 to 4; conditions: plain residues with an end cap or a label only (N-terminal biotin on a linker: ado-ado)

pKd | Binder
below the threshold | PGKKPEDSRV [SLCO2B1, O94956]
below the threshold | MLPANYVEAI [NEB, P20929]

target: DLG2_2, Q15700; test: holdup assay; set-up: key: below the threshold = too weak to quantify, mostly under pKd 3.1 to 4; conditions: plain residues with an end cap or a label only (N-terminal biotin on a linker: ado-ado)
Sequence (Q15700 189-283): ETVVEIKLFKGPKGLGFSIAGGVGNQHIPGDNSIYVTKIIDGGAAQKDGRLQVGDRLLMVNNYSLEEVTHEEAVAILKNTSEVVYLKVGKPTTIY

pKd | Binder
3.5 | PGKKPEDSRV [SLCO2B1, O94956]
below the threshold | MLPANYVEAI [NEB, P20929]

target: Inadl_3, Q8NI35; test: holdup assay; set-up: key: below the threshold = too weak to quantify, mostly under pKd 3.1 to 4; conditions: plain residues with an end cap or a label only (N-terminal biotin on a linker: ado-ado)
Sequence (Q8NI35 359-469): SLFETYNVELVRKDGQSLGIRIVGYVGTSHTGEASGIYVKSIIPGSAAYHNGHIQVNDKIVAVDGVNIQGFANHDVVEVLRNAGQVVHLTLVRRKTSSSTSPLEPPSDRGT

pKd | Binder
below the threshold | PGKKPEDSRV [SLCO2B1, O94956]
below the threshold | MLPANYVEAI [NEB, P20929]

target: T7, NHERF3_1, Q5T2W1; test: holdup assay; set-up: key: below the threshold = too weak to quantify, mostly under pKd 3.1 to 4; conditions: plain residues with an end cap or a label only (N-terminal biotin on a linker: ado-ado)

pKd | Binder
3.66 | PGKKPEDSRV [SLCO2B1, O94956]
below the threshold | MLPANYVEAI [NEB, P20929]

target: T8, PARD3B_1, Q8TEW8; test: holdup assay; set-up: key: below the threshold = too weak to quantify, mostly under pKd 3.1 to 4; conditions: plain residues with an end cap or a label only (N-terminal biotin on a linker: ado-ado)

pKd | Binder
below the threshold | PGKKPEDSRV [SLCO2B1, O94956]
below the threshold | MLPANYVEAI [NEB, P20929]

target: DLG5_1, Q8TDM6; test: holdup assay; set-up: key: below the threshold = too weak to quantify, mostly under pKd 3.1 to 4; conditions: plain residues with an end cap or a label only (N-terminal biotin on a linker: ado-ado)
Sequence (Q8TDM6 617-713): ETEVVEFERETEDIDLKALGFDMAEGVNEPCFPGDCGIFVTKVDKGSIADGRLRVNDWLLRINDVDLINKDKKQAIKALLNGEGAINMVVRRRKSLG

pKd | Binder
below the threshold | PGKKPEDSRV [SLCO2B1, O94956]
below the threshold | MLPANYVEAI [NEB, P20929]

target: T9, SNTG1, Q9NSN8; test: holdup assay; set-up: key: below the threshold = too weak to quantify, mostly under pKd 3.1 to 4; conditions: plain residues with an end cap or a label only (N-terminal biotin on a linker: ado-ado)

pKd | Binder
below the threshold | PGKKPEDSRV [SLCO2B1, O94956]
below the threshold | MLPANYVEAI [NEB, P20929]

target: PICK1, Q9NRD5; test: holdup assay; set-up: key: below the threshold = too weak to quantify, mostly under pKd 3.1 to 4; conditions: plain residues with an end cap or a label only (N-terminal biotin on a linker: ado-ado)
Sequence (Q9NRD5 17-115): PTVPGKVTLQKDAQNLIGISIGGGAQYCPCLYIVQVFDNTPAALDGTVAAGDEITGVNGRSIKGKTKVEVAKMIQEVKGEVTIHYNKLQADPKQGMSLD

pKd | Binder
below the threshold | PGKKPEDSRV [SLCO2B1, O94956]
3.94 | MLPANYVEAI [NEB, P20929]

target: LDB3, O75112; test: holdup assay; set-up: key: below the threshold = too weak to quantify, mostly under pKd 3.1 to 4; conditions: plain residues with an end cap or a label only (N-terminal biotin on a linker: ado-ado)
Sequence (O75112 1-94): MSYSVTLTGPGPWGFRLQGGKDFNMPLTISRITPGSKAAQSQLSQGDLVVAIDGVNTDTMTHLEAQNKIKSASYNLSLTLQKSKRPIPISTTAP

pKd | Binder
below the threshold | PGKKPEDSRV [SLCO2B1, O94956]
below the threshold | MLPANYVEAI [NEB, P20929]

target: TJP1_3, Q07157; test: holdup assay; set-up: key: below the threshold = too weak to quantify, mostly under pKd 3.1 to 4; conditions: plain residues with an end cap or a label only (N-terminal biotin on a linker: ado-ado)
Sequence (Q07157 416-512): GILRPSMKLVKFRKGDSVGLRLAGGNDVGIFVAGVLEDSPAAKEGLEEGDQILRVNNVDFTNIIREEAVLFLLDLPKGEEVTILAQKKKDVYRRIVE

pKd | Binder
below the threshold | PGKKPEDSRV [SLCO2B1, O94956]
below the threshold | MLPANYVEAI [NEB, P20929]
